Experimental data taken from publication PMC8215292, “Functional impact of intramolecular cleavage and dissociation of adhesion G protein–coupled receptor GPR133 (ADGRD1) on canonical signaling” (The Journal of Biological Chemistry, 2021).

Experiments:
[1] = biological target: T1, GPR133 (ADGRD1) C-terminal fragment with C-terminal Twin-Strep-tag, cleaved from C-terminally … (human); experiment: pull-down; C-terminal Twin-Strep tag purification on Strep-Tactin from the Nuc/ER/Golgi subcellular fraction of HEK293T cells (1% DDM); Western blot, densitometry of NTF/CTF; details: partners not purified
T1 construct: also called CTF; GPR133 CTF; source: HEK293T, transfected, in whole-cell lysate or subcellular fractions; not shown: Twin-Strep, C-terminal, kept
T1 chain: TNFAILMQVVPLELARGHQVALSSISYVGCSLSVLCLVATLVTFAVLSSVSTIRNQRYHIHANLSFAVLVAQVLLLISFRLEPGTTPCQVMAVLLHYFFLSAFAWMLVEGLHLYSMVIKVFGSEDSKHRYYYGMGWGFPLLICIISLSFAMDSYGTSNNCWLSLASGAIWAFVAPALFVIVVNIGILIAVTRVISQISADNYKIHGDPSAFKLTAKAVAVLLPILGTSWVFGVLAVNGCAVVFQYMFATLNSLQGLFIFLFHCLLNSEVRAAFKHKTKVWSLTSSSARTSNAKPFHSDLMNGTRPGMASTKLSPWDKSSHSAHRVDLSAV

[2] = biological target: T1, GPR133 (ADGRD1) C-terminal fragment …; experiment: pull-down; C-terminal Twin-Strep tag purification on Strep-Tactin from the plasma membrane subcellular fraction of HEK293T cells (1% DDM); Western blot, densitometry of NTF/CTF; details: partners not purified

NTF/CTF ratio in the elution [1]: 1 | NTF/CTF ratio in the elution [2]: 0.17
B1: GPR133 (ADGRD1) N-terminal fragment, cleaved from C-terminally Twin-Strep-tagged WT GPR133 (domain or fragment, human)
chain: VYSRSQDHPGFQVLASASHYWPLENVDGIHELQDTTGDIVEGKVNKGIYLKEEKGVTLLYYGRYNSSCISKPEQCGPEGVTFSFFWKTQGEQSRPIPSAYGGQVISNGFKVCSSGGRGSVELYTRDNSMTWEASFSPPGPYWTHVLFTWKSKEGLKVYVNGTLSTSDPSGKVSRDYGESNVNLVIGSEQDQAKCYENGAFDEFIIWERALTPDEIAMYFTAAIGKHALLSSTLPSLFMTSTASPVMPTDAYHPIITNLTEERKTFQSPGVILSYLQNVSLSLPSKSLSEQTALNLTKTFLKAVGEILLLPGWIALSEDSAVVLSLIDTIDTVMGHVSSNLHGSTPQVTVEGSSAMAEFSVAKILPKTVNSSHYRFPAHGQSFIQIPHEAFHRHAWSTVVGLLYHSMHYYLNNIWPAHTKIAEAMHHQDCLLFATSHLISLEVSPPPTLSQNLSGSPLITVHLKHRLTRKQHSEATNSSNRVFVYCAFLDFSSGEGVWSNHGCALTRGNLTYSVCRCTHL
modifications: glycosylated (immaturely and maturely glycosylated forms; nine N-linked glycosylation sites predicted within the NTF)
notes: signal peptide in the construct; codon-optimized cDNA of WT human GPR133 from Axxam; also called NTF; GPR133 NTF; source: HEK293T, transfected, in whole-cell lysate or subcellular fractions
